Test results: IntAct's records for PubMed 17681130

B1: Protein BRASSINAZOLE-RESISTANT 1 (Arabidopsis thaliana (Mouse-ear cress)), Q8S307 (parent)
chain: MTSDGATSTSAAAAAAAAAAARRKPSWRERENNRRRERRRRAVAAKIYTGLRAQGDYNLPKHCDNNEVLKALCVEAGWVVEEDGTTYRKGCKPLPGEIAGTSSRVTPYSSQNQSPLSSAFQSPIPSYQVSPSSSSFPSPSRGEPNNNMSSTFFPFLRNGGIPSSLPSLRISNSCPVTPPVSSPTSKNPKPLPNWESIAKQSMAIAKQSMASFNYPFYAVSAPASPTHRHQFHTPATIPECDESDSSTVDSGHWISFQKFAQQQPFSASMVPTSPTFNLVKPAPQQMSPNTAAFQEIGQSSEFKFENSQVKPWEGERIHDVGMEDLELTLGNGKARG
partner: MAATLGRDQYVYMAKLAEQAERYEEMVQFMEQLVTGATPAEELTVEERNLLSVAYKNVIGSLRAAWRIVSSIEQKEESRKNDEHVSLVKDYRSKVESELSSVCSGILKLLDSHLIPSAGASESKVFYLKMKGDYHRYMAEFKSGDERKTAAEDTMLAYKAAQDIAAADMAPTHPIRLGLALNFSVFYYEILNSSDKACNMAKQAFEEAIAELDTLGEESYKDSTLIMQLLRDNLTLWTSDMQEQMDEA

Variants of: B1
Conditions: with 14336_arath GRF6, P48349

Variant | effect of a mutation on the interaction
S173A | decreasing interaction
